The text below walks through data of publication PMC4147313.

Assay [1] addresses formyl-peptide receptors (FPRs) of CHO-K1 cells (Chinese hamster (endogenous in CHO-K1)).
Assay [2] addresses formyl-peptide receptor (FPR) (human (endogenous in SKOV-3)) (UniProt P21462).
For assay [3] the target is unchanged. This is another data set of the same source.
Assay [4] has as its target formyl-peptide receptors (FPRs) of CHO-K1 cells (Chinese hamster (endogenous in CHO-K1)). The source holds these as a separate data set.

Chain of UniProt P21462 (P21462 whole entry): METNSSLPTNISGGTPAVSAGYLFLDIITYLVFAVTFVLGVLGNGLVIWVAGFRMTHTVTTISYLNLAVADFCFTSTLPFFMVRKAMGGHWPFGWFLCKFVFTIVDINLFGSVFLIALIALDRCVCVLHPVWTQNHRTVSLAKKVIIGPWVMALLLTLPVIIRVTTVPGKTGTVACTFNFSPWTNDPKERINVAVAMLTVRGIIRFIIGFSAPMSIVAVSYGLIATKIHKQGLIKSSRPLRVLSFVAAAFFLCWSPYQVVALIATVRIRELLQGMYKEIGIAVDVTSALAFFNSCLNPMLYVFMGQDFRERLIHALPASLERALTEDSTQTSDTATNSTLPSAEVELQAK

In assay [1], “wild type, full length uPAR (D1D2D3) on CHO-K1 cells (from UniProt Q03405 23-305) (receptor)” returned a reduction by 10 nM RERF peptide of the Cell Index of CHO-K1/D1D2D3 cells invading matrigel toward serum (xCELLigence, after 18 hrs) (% reduction of Cell Index) of 75.

With “truncated uPAR lacking the D1 domain and exposing the 84-95 sequence (uPARD2D3) on CHO-K1 cells (domain or fragment)”, the reduction by 10 nM RERF peptide of the Cell Index of CHO-K1/D2D3 cells invading matrigel toward serum (xCELLigence, after 18 hrs) (% reduction of Cell Index) in assay [1] was found to be 83.

In the case of “urokinase receptor (uPAR) (from UniProt Q03405 23-305)”, the reduction of migration of SKOV-3 cells toward 10% FBS by RERF peptide, 10 fM to 10 pM (35% at 10 fM, 60% at 10 pM) (% reduction of cell migration) in assay [2] stood at 60. This molecule displayed a reduction by 10 nM RERF peptide of the Cell Index of SKOV-3 cells invading matrigel toward serum (xCELLigence, 18 hrs); anti-uPAR84-95 polyclonal antibody reduced it by 50% (% reduction of Cell Index) in assay [3] of 86.

The molecule SRSRY [SRSRY peptide (uPAR 88-92, Ser-Arg-Ser-Arg-Tyr)] yielded a migration of wild type CHO-K1 cells toward 10 nM SRSRY (Boyden chamber, 4 hrs, 37°C), percent of basal (% of the basal cell migration) in assay [4] of 177.
